Source: article doi:10.1101/2020.02.01.930206 (bioRxiv, 2020)

Legend:
[1] = molecular target: T1, Drosophila melanogaster CIAO1 (Drosophila melanogaster, UniProt Q7K1Y4 1-335); test: crystal structure
T1 sequence: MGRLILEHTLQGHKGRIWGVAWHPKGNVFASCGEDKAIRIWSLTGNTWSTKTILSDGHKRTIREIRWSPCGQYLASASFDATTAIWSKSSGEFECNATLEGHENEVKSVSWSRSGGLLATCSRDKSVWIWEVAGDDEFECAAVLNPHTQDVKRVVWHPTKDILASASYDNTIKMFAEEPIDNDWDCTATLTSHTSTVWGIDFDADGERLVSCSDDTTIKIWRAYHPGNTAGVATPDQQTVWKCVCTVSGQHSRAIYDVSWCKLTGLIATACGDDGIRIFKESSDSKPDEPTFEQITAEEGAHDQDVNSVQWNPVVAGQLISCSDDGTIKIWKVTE

[2] = molecular target: T2, full-length mouse MMS19 (mouse, UniProt Q9D071 1-1031); test: crystal structure
T2 sequence: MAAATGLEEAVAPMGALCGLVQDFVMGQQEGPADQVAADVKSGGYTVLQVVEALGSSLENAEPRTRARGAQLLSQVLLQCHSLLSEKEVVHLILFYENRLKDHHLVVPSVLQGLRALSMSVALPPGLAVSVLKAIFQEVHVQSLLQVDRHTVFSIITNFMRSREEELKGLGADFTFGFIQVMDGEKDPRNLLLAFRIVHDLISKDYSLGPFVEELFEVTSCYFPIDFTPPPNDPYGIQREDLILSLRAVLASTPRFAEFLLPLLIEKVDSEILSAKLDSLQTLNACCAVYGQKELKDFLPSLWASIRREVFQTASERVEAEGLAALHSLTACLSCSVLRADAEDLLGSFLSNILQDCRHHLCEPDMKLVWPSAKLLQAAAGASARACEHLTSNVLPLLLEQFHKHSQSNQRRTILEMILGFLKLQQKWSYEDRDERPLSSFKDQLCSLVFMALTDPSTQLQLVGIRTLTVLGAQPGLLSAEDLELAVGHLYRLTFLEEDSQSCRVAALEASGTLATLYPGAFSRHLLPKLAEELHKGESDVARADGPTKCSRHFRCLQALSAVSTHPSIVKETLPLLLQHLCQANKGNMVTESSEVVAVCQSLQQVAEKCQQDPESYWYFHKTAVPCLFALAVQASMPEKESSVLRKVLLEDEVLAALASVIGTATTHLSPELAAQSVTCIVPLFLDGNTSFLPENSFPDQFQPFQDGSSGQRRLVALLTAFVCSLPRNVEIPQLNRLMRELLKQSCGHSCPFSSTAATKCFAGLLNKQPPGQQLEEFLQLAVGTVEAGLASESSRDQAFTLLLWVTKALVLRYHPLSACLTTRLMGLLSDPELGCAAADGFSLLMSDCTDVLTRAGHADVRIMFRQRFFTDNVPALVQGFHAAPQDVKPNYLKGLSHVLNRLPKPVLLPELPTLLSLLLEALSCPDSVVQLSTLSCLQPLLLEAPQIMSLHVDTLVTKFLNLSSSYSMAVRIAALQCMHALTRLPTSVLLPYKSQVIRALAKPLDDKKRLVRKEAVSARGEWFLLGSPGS

[3] = molecular target: the molecule itself; test: crystal structure
[4] = molecular target: the molecule itself; test: negative-stain electron microscopy
[5] = molecular target: full-length human CIA targeting complex (MMS19-CIAO1-CIAO2B) (human, UniProt Q96T76;O76071;Q9Y3D0); test: ITC
[6] = molecular target: human MMS19^381-1030-CIAO1-CIAO2B complex (human, UniProt Q96T76;O76071;Q9Y3D0); test: ITC
[7] = molecular target: human CIAO1-CIAO2B core complex (human, UniProt O76071;Q9Y3D0); test: ITC
human CIAO1-CIAO2B core complex, sequence (O76071 whole entry, one chain of several): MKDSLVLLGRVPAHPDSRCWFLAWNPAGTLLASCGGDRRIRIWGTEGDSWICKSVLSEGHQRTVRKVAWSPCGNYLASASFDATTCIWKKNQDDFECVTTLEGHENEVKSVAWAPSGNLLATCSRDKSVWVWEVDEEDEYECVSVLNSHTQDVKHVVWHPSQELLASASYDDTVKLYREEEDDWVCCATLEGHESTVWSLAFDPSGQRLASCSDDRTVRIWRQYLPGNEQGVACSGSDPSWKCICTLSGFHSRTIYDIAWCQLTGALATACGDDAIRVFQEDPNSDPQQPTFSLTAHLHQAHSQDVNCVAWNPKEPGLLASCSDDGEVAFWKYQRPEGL

human MMS19^381-1030-CIAO1-CIAO2B complex, sequence (O76071 whole entry, one chain of several): as above
full-length human CIA targeting complex (MMS19-CIAO1-CIAO2B), sequence (O76071 whole entry, one chain of several): as above

B1: Drosophila melanogaster CIAO2B (natural protein)
chain: MPTEIENINPNVYDRIKERVLTANEEDENVPDPFDKREIFDLIRNINDPEHPLTLEELHVVQEDLIRINDSQNSVHISFTPTIPHCSMATLIGLSIRVKLLRSLPPRFKVTVEITPGTHASELAVNKQLADKERVAAALENNHLAEVINQCIAAKG
Does B1 bind [1]?
Result: binds

Does B1 bind [2]?
Result: binds

Does B1 bind [3]?
Result: binds

B2: all-mouse CIA targeting complex (MmMMS19-MmCIAO1-CIAO2B) (complex)
chain 1: T2 sequence
chain 2: not shown
chain 3: MVGGGGSGGGLLENANPLIYERSGERPVTAGEEDEEVPDSIDAREIFDLIRSINDPEHPLTLEELNVVEQVRIQVSDPESTVAVAFTPTIPHCSMATLIGLSIKVKLLRSLPQRFKMDVHITPGTHASEHAVNKQLADKERVAAALENTHLLEVVNQCLSARS
Does B2 bind [4]?
Result: binds

B3: human primase (PriL-PriS heterodimer) (complex)
chain 1: MEFSGRKWRKLRLAGDQRNASYPHCLQFYLQPPSENISLIEFENLAIDRVKLLKSVENLGVSYVKGTEQYQSKLESELRKLKFSYRENLEDEYEPRRRDHISHFILRLAYCQSEELRRWFIQQEMDLLRFRFSILPKDKIQDFLKDSQLQFEAISDEEKTLREQEIVASSPSLSGLKLGFESIYKIPFADALDLFRGRKVYLEDGFAYVPLKDIVAIILNEFRAKLSKALALTARSLPAVQSDERLQPLLNHLSHSYTGQDYSTQGNVGKISLDQIDLLSTKSFPPCMRQLHKALRENHHLRHGGRMQYGLFLKGIGLTLEQALQFWKQEFIKGKMDPDKFDKGYSYNIRHSFGKEGKRTDYTPFSCLKIILSNPPSQGDYHGCPFRHSDPELLKQKLQSYKISPGGISQILDLVKGTHYQVACQKYFEMIHNVDDCGFSLNHPNQFFCESQRILNGGKDIKKEPIQPETPQPKPSVQKTKDASSALASLNSSLEMDMEGLEDYFSEDS
chain 2: METFDPTELPELLKLYYRRLFPYSQYYRWLNYGGVIKNYFQHREFSFTLKDDIYIRYQSFNNQSDLEKEMQKMNPYKIDIGAVYSHRPNQHNTVKLGAFQAQEKELVFDIDMTDYDDVRRCCSSADICPKCWTLMTMAIRIIDRALKEDFGFKHRLWVYSGRRGVHCWVCDESVRKLSSAVRSGIVEYLSLVKGGQDVKKKVHLSEKIHPFIRKSINIIKKYFEEYALVNQDILENKESWDKILALVPETIHDELQQSFQKSHNSLQRWEHLKKVASRYQNNIKNDKYGPWLEWEIMLQYCFPRLDINVSKGINHLLKSPFSVHPKTGRISVPIDLQKVDQFDPFTVPTISFICRELDAISTNEEEKEENEAESDVKHRTRDYKKTSLAPYVKVFEHFLENLDKSRKGELLKKSDLQKDF
For B3, which Kd [5] is on record?
The Kd was 35 nM.

And the Kd [6]?
Its Kd is 508 nM.

B4: human primase small subunit PriS (natural protein)
chain: B3 chain 2
With B4 as the binder, how does the Kd [7] read?
Its Kd is 3.1 µM.

B5: Drosophila melanogaster CIAO1-CIAO2B core complex (complex)
chain 1: T1 sequence
chain 2: B1 chain
Does B5 bind [2]?
Result: binds
